{"source": "patent US20240261333A1", "about": "“NOVEL TARGETS FOR ENHANCING ANTI-TUMOR IMMUNITY” (THE BROAD INSTITUTE, INC., priority 2021, published 2024)", "assay_in_all_cases": "anti-FLAG co-IP from lysate of N-FLAG B3GNT2 cells, mass spectrometry", "key": {"ACSL3 (human)": {"biological_target": "ACSL3 (human) (UniProt O95573)", "sequence (O95573 whole entry)": "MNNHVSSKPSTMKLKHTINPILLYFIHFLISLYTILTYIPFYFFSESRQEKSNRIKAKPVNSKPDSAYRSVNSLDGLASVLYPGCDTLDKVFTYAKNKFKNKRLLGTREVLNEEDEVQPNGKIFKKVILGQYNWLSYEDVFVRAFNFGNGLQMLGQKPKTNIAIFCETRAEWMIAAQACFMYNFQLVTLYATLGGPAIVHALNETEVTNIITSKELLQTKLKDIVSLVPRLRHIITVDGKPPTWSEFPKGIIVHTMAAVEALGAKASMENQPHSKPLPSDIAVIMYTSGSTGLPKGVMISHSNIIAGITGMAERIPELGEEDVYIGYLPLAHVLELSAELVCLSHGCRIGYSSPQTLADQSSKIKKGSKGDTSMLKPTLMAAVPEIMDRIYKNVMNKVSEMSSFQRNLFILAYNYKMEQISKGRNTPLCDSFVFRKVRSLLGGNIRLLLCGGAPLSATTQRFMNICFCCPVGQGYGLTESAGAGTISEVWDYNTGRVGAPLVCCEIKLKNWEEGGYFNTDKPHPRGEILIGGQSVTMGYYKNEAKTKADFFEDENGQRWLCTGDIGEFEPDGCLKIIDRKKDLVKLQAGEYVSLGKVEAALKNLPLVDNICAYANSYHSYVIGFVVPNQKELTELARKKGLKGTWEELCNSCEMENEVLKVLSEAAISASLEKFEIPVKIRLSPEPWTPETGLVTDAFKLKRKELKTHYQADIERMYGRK"}, "AIFM1 (human)": {"biological_target": "AIFM1 (human) (UniProt O95831)", "sequence (O95831 55-613 limits assumed)": "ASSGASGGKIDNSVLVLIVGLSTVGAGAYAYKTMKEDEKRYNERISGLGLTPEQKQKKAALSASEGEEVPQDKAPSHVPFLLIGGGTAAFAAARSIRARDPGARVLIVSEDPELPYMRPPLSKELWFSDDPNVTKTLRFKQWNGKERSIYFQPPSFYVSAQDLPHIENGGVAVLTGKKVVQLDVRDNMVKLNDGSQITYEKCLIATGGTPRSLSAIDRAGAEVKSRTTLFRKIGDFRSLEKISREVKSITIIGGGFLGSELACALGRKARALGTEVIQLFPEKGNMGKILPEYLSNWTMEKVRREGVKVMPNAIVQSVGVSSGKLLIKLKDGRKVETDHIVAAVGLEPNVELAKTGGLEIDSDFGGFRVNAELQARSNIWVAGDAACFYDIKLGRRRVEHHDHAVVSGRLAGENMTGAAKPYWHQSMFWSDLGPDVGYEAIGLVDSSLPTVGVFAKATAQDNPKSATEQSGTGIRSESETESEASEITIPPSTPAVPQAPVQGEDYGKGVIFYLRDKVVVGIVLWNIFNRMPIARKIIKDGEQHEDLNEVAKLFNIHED"}, "RRBP1 (human)": {"biological_target": "RRBP1 (human) (UniProt Q9P2E9)", "sequence (Q9P2E9 whole entry)": "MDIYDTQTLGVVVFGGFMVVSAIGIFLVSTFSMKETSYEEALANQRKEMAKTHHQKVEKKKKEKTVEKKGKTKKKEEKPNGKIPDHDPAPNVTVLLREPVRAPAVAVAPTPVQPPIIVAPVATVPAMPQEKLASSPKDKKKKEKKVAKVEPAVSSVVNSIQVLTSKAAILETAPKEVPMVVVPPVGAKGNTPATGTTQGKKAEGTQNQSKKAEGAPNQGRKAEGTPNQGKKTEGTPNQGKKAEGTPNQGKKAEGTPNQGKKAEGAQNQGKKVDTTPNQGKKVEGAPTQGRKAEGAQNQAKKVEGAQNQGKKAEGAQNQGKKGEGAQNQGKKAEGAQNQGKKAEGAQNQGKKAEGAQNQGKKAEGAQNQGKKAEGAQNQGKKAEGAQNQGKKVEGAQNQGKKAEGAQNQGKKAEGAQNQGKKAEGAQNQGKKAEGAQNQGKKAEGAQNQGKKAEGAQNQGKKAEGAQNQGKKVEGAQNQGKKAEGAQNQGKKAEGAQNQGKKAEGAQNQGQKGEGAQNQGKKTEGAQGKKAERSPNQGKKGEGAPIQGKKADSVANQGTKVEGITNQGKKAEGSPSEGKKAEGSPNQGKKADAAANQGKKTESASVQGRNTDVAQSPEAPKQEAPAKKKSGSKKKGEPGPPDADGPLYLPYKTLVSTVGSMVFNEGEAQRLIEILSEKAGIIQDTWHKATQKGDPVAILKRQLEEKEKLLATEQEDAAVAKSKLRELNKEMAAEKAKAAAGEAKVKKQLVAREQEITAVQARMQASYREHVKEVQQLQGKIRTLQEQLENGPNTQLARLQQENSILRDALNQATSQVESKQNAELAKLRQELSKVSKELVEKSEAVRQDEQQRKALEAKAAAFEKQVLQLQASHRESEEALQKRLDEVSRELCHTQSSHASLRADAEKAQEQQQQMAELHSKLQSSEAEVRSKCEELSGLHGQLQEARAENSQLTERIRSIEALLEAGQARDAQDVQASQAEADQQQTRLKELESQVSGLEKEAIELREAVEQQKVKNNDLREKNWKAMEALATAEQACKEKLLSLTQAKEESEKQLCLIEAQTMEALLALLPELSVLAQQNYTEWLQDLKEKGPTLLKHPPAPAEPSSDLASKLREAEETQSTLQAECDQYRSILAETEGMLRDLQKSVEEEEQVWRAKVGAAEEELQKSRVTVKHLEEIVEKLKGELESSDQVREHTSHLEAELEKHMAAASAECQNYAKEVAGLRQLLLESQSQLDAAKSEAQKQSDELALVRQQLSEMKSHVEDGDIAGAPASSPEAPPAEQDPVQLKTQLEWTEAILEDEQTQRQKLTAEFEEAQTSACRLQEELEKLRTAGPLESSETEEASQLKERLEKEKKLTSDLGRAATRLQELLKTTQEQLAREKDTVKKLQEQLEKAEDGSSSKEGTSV"}, "KPNB1 (human)": {"biological_target": "KPNB1 (human) (UniProt Q14974)", "sequence (Q14974 whole entry)": "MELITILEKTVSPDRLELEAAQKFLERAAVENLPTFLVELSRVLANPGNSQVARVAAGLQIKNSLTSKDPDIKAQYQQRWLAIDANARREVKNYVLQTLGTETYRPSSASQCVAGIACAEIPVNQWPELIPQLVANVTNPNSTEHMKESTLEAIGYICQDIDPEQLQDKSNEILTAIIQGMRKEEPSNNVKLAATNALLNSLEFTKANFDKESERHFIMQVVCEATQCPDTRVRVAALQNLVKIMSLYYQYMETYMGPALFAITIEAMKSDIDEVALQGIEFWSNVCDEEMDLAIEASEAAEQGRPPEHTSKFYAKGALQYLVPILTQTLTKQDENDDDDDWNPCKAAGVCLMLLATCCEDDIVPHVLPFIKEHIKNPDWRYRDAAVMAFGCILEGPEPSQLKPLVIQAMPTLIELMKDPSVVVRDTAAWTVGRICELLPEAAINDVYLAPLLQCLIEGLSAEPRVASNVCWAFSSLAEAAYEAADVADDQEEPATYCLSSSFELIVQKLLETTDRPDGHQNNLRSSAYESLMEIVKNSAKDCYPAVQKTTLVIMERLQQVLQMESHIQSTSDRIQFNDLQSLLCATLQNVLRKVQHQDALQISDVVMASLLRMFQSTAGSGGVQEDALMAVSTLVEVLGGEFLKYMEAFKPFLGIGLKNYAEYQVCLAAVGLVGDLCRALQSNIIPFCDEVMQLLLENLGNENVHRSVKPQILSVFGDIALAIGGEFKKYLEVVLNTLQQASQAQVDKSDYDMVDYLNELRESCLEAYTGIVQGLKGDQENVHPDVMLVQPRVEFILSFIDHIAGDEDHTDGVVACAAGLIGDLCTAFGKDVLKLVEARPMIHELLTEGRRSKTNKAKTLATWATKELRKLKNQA"}, "LDHA (human)": {"biological_target": "LDHA (human) (UniProt P00338)"}, "PXN (human)": {"biological_target": "PXN (human) (UniProt P49023)"}, "TUBA1C (human)": {"biological_target": "TUBA1C (human) (UniProt Q9BQE3)"}, "HSP90AB1 (human)": {"biological_target": "HSP90AB1 (human) (UniProt P08238)", "sequence (P08238 2-724 limits assumed)": "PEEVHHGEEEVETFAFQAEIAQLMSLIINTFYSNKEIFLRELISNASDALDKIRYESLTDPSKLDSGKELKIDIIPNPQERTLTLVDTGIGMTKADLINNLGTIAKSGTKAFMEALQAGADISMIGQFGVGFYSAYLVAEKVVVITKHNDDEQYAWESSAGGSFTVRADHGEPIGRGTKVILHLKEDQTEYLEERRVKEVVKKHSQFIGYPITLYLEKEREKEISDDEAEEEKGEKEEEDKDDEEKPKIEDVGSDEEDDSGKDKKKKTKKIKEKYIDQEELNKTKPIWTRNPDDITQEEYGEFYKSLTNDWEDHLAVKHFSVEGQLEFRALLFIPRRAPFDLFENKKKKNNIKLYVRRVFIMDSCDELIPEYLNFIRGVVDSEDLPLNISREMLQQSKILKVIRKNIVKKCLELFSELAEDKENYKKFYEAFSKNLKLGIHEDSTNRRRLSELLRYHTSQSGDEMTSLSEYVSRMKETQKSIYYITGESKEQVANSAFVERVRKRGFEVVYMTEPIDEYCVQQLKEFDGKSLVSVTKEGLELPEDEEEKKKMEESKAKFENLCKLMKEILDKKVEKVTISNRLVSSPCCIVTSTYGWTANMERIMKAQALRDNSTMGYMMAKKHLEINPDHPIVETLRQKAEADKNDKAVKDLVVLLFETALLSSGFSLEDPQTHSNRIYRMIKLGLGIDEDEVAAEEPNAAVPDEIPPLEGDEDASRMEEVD"}, "RPL15 (human)": {"biological_target": "RPL15 (human) (UniProt P61313)"}, "RPS6 (human)": {"biological_target": "RPS6 (human) (UniProt P62753)"}, "PSMA5 (human)": {"biological_target": "PSMA5 (human) (UniProt P28066)", "sequence (P28066 whole entry)": "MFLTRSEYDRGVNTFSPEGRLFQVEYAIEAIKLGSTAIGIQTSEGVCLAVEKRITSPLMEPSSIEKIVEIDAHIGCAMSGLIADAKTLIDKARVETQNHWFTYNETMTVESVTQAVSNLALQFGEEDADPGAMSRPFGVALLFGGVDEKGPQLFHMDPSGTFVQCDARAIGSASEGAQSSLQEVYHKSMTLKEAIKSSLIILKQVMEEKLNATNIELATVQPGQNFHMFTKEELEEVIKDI"}, "PSMB6 (human)": {"biological_target": "PSMB6 (human) (UniProt P28072)", "sequence (P28072 35-239 limits assumed)": "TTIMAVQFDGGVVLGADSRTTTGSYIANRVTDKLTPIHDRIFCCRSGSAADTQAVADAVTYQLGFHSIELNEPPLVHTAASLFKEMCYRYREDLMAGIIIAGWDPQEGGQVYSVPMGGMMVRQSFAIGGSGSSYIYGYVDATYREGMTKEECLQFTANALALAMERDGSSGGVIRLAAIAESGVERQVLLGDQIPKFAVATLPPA"}}, "data": [{"substance": "N-terminal FLAG tagged B3GNT2 (from UniProt Q9NY97 1-397) (enzyme)", "values": [{"measurement": "co-IP mass spectrometry count", "setting": "ACSL3 (human)", "result": 5}, {"measurement": "co-IP mass spectrometry count", "setting": "AIFM1 (human)", "result": 5}, {"measurement": "co-IP mass spectrometry count", "setting": "RRBP1 (human)", "result": 2}, {"measurement": "co-IP mass spectrometry count", "setting": "KPNB1 (human)", "result": 3}, {"measurement": "co-IP mass spectrometry count", "setting": "LDHA (human)", "result": 5}, {"measurement": "co-IP mass spectrometry count", "setting": "PXN (human)", "result": 2}, {"measurement": "co-IP mass spectrometry count", "setting": "TUBA1C (human)", "result": 76}, {"measurement": "co-IP mass spectrometry count", "setting": "HSP90AB1 (human)", "result": 10}, {"measurement": "co-IP mass spectrometry count", "setting": "RPL15 (human)", "result": 6}, {"measurement": "co-IP mass spectrometry count", "setting": "RPS6 (human)", "result": 11}, {"measurement": "co-IP mass spectrometry count", "setting": "PSMA5 (human)", "result": 2}, {"measurement": "co-IP mass spectrometry count", "setting": "PSMB6 (human)", "result": 5}]}]}
